Square brackets hold non-standard residues; d marks the D form. Ends that are not written are not given here. Cit = NC(=O)NCCC[C@H](N)C(=O)O
B1: citrullinated a-enolase peptide ref no 292 (peptide)
peptide: F[Cit]AAVPSGASTGIYE
B2: citrullinated a-enolase peptide ref no 300 (peptide)
peptide: Y[Cit]HIADLAGNSEVIL
B3: citrullinated a-enolase peptide ref no 302 (peptide)
peptide: LPVGAANF[Cit]EAM[Cit]IG
B4: citrullinated a-enolase peptide ref no 305 (peptide)
peptide: VIGMDVAASEFF[Cit]SG
B5: citrullinated a-enolase peptide ref no 313 (peptide)
peptide: K[Cit]IAKAVNEKSCNCL
modifications: cysteine pairing not given here
B6: citrullinated a-enolase peptide ref no 324 (peptide)
peptide: KAKFAG[Cit]NF[Cit]NPLAK
B7: citrullinated a-enolase peptide ref no 287 (peptide)
peptide: MSILKIHA[Cit]EIFDS[Cit]
B8: citrullinated a-enolase peptide ref no 289 (peptide)
peptide: IFDS[Cit]GNPTVEVDLF
B9: a-enolase peptide ref no 49 (peptide)
peptide: VIGMDVAASEFFRSG
B10: citrullinated a-enolase peptide ref no 301 (peptide)
peptide: QEFMILPVGAANF[Cit]E
B11: citrullinated a-enolase peptide ref no 297 (peptide)
peptide: [Cit]YMGKGVSKAVEHIN
B12: a-enolase peptide ref no 34 (peptide)
peptide: QEFMILPVGAANFRE
B13: citrullinated vimentin peptide ref no 117 (peptide)
peptide: LLAELEQLKGQGKS[Cit]
B14: vimentin peptide ref no 77 (peptide)
peptide: REYQDLLNVKMALDI
B15: citrullinated vimentin peptide ref no 132 (peptide)
peptide: F[Cit]QDVDNASLA[Cit]LDL
B16: vimentin peptide ref no 13 (peptide)
peptide: YATRSSAVRLRSSVP
B17: vimentin peptide ref no 32 (peptide)
peptide: ELRRQVDQLTNDKAR
B18: vimentin peptide ref no 42 (peptide)
peptide: FRQDVDNASLARLDL
B19: vimentin peptide ref no 34 (peptide)
peptide: NDKARVEVERDNLAE
B20: citrullinated vimentin peptide ref no 99 (peptide)
peptide: VTTST[Cit]TYSLGSAL[Cit]
B21: vimentin peptide ref no 64 (peptide)
peptide: STEYRRQVQSLTCEV
B22: citrullinated vimentin peptide ref no 156 (peptide)
peptide: XEYQDLLNVKMALDI
modifications: citrulline (Xaa) at 1
B23: citrullinated vimentin peptide ref no 95 (peptide)
peptide: Y[Cit][Cit]MFGGPGTAS[Cit]PS
B24: vimentin peptide ref no 79 (peptide)
peptide: MALDIEIATYRKLLE
B25: citrullinated vimentin peptide ref no 93 (peptide)
peptide: MST[Cit]SVSSSSY[Cit][Cit]MF
B26: vimentin peptide ref no 55 (peptide)
peptide: DVRQQYESVAAKNLQ
B27: vimentin peptide ref no 27 (peptide)
peptide: LLAELEQLKGQGKSR
B28: vimentin peptide ref no 16 (peptide)
peptide: GVRLLQDSVDFSLAD
B29: citrullinated vimentin peptide ref no 98 (peptide)
peptide: SS[Cit]SYVTTST[Cit]TYSL
B30: vimentin peptide ref no 59 (peptide)
peptide: YKSKFADLSEAANRN
B31: citrullinated vimentin peptide ref no 159 (peptide)
peptide: XKLLEGEESXISLPL
modifications: citrulline (Xaa) at 1, 10
B32: vimentin peptide ref no 20 (peptide)
peptide: FKNTRTNEKVELQEL
B33: vimentin peptide ref no 71 (peptide)
peptide: FAVEAANYQDTIGRL
B34: citrullinated vimentin peptide ref no 145 (peptide)
peptide: STEY[Cit][Cit]QVQSLTCEV
B35: citrullinated vimentin peptide ref no 150 (peptide)
peptide: FAVEAANYQDTIG[Cit]L
B36: vimentin peptide ref no 41 (peptide)
peptide: NTLQSFRQDVDNASL
B37: vimentin peptide ref no 44 (peptide)
peptide: ARLDLERKVESLQEE
B38: vimentin peptide ref no 92 (peptide)
peptide: GQVINETSQHHDDLE
B39: vimentin peptide ref no 14 (peptide)
peptide: SAVRLRSSVPGVRLL
B40: corresponding non-citrullinated peptide of a-enolase peptide 300 (peptide)
peptide: YRHIADLAGNSEVIL
B41: corresponding non-citrullinated peptide of a-enolase peptide 302 (peptide)
peptide: LPVGAANFREAMRIG
B42: corresponding non-citrullinated peptide of a-enolase peptide 292 (peptide)
peptide: FRAAVPSGASTGIYE
B43: corresponding non-citrullinated peptide of a-enolase peptide 324 (peptide)
peptide: KAKFAGRNFRNPLAK

Molecular target: T1, recombinant MHC class II protein of the HLA DRB1 0101 genotype (human)
T1 construct: construct not described
Assay: in vitro binding assay

binding result | Binder
binds | B1
no binding | B2
no binding | B3
no binding | B4
binds | B5
no binding | B6
binds | B7
no binding | B8
no binding | B9
no binding | B10
no binding | B11
binds | B12

Molecular target: T2, recombinant MHC class II protein of the HLA DRB1 0404 genotype (human)
T2 construct: construct not described
Assay: in vitro binding assay

binding result | Binder
binds | B1
no binding | B2
binds | B3
no binding | B4
binds | B5
binds | B6
binds | B7
no binding | B8
binds | B9
binds | B10
no binding | B11
binds | B12

Molecular target: T3, recombinant MHC class II protein of the HLA DRB1 0405 genotype (human)
T3 construct: construct not described
Assay: in vitro binding assay

binding result | Binder
binds | B1
binds | B2
binds | B3
binds | B4
binds | B5
binds | B6
binds | B7
binds | B8
binds | B9
binds | B10
binds | B11
binds | B12

Molecular target: T4, recombinant MHC class II protein of the HLA DRB1 0408 genotype (human)
T4 construct: construct not described
Assay: in vitro binding assay

binding result | Binder
no binding | B1
no binding | B2
no binding | B3
no binding | B4
no binding | B5
no binding | B6
no binding | B7
no binding | B8
binds | B9
no binding | B10
no binding | B11
no binding | B12

Molecular target: T5, recombinant MHC class II protein of the HLA DRB1 1001 genotype (human)
T5 construct: construct not described
Assay: in vitro binding assay

binding result | Binder
no binding | B1
no binding | B2
no binding | B3
no binding | B4
no binding | B5
no binding | B6
binds | B7
no binding | B8
no binding | B9
no binding | B10
no binding | B11
no binding | B12

Molecular target: T1, recombinant MHC class II protein of the …
Assay: in vitro binding assay
Remark: another data set of the same source

binding result | Binder
binds | B13
binds | B14
binds | B15
binds | B16
binds | B17
binds | B18
no binding | B19
binds | B20
binds | B21
binds | B22
binds | B23
binds | B24
no binding | B25
binds | B26
binds | B27
no binding | B28

Molecular target: T6, recombinant MHC class II protein of the HLA DRB1 0401 genotype (human)
T6 construct: construct not described; also called HLA-DR0401
Assay: in vitro binding assay

binding result | Binder
binds | B29
binds | B30
binds | B31
binds | B32
no binding | B16
binds | B18
binds | B19
binds | B33
binds | B20
binds | B21
binds | B23
no binding | B24
binds | B25
binds | B26
binds | B34
binds | B28
binds | B35
binds | B36

Molecular target: T2, recombinant MHC class II protein of the …
Assay: in vitro binding assay
Remark: another data set of the same source

binding result | Binder
no binding | B13
no binding | B31
binds | B17
no binding | B18
binds | B37
binds | B38
binds | B39
binds | B24
binds | B25
no binding | B27
binds | B36

Molecular target: T3, recombinant MHC class II protein of the …
Assay: in vitro binding assay
Remark: another data set of the same source

binding result | Binder
binds | B29
no binding | B13
binds | B14
no binding | B19
binds | B21
binds | B36

Molecular target: T6, recombinant MHC class II protein of the …
Assay: in vitro binding assay
Remark: another data set of the same source

binding result | Binder
binds | B1
no binding | B40
binds | B2
binds | B3
binds | B4
binds | B5
binds | B6
binds | B7
no binding | B41
binds | B8
no binding | B42
binds | B10
no binding | B43
binds | B11

Source: patent US20200407424A1 (FRAUNHOFER GESELLSCHAFT ZUR F RDERUNG DER ANGEWANDTEN …, published 2020)
